Data taken from publication PMC8611336.

Tests used:
[1] = target: SUVs of NE lipid composition; experiment: microscale thermophoresis (MST); details: value read at the highest lipid concentration, about 1600 µM; n = 3; parent: est. 88; read off a plot
[2] = target: SUVs of PM lipid composition; experiment: microscale thermophoresis (MST); details: value read at the highest lipid concentration, about 1600 µM; n = 3; parent: est. 105; read off a plot

- response [1]: 50%
- response [2]: 35%
Substance: AαH peptide (Apq12 58-68, …) L58D; F61R; I62N; F68N
